Here are results for one molecule from patent US20100292153A1 (US Dept. of Health and Human Services, published 2010).

This assay concerns the target T1, TRAF2 (untagged) (UniProt Q12933 1-501, limits assumed).
T1 construct: Negative control
T1 sequence (looked up): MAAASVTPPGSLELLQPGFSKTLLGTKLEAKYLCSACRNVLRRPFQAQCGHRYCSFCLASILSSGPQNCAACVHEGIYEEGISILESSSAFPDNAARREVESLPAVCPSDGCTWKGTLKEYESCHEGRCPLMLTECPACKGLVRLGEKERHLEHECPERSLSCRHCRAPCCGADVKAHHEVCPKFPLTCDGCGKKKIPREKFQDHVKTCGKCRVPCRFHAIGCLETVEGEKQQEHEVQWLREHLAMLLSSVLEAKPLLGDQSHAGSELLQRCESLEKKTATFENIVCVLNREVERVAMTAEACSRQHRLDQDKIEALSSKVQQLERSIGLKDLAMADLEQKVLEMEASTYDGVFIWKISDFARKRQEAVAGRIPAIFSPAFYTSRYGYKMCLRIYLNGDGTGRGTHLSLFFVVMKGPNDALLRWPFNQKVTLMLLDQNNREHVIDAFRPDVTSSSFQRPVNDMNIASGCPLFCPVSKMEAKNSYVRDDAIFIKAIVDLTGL
The assay can be described thus: co-immunoprecipitation from transfected HEK293 cells (anti-FLAG beads, anti-TRAF2 immunoblot). The procedure:
Whole cell lysates were prepared 48 hrs after the transfection and were incubated with anti-FLAG conjugated beads (Sigma) overnight.

B1: FLAG-tagged human IRF4 (other, UniProt Q15306 1-451, looked up)
chain: MNLEGGGRGGEFGMSAVSCGNGKLRQWLIDQIDSGKYPGLVWENEEKSIFRIPWKHAGKQDYNREEDAALFKAWALFKGKFREGIDKPDPPTWKTRLRCALNKSNDFEELVERSQLDISDPYKVYRIVPEGAKKGAKQLTLEDPQMSMSHPYTMTTPYPSLPAQQVHNYMMPPLDRSWRDYVPDQPHPEIPYQCPMTFGPRGHHWQGPACENGCQVTGTFYACAPPESQAPGVPTEPSIRSAEALAFSDCRLHICLYYREILVKELTTSSPEGCRISHGHTYDASNLDQVLFPYPEDNGQRKNIEKLLSHLERGVVLWMAPDGLYAKRLCQSRIYWDGPLALCNDRPNKLERDQTCKLFDTQQFLSELQAFAHHGRSLPRFQVTLCFGEEFPDPQRQRKLITAHVEPLLARQLYYFAQQNSGHFLRGYDLPEHISNPEDYHRSIRHSSIQE
notes: Expressed by transfection in HEK293 cells; pulled down from whole cell lysates with anti-FLAG beads; it is entered under this molecule; also called IFN-regulatory factor 4; FLAG-tagged IRF4; not shown: FLAG tag
On to B1, for which the binding result is on record as “no binding”.
